Source: patent US11833164B2, “Methods of treating Fabry disease in patients having a mutation in the GLA gene” (Amicus Therapeutics, Inc., priority 2019, dated 2023)
Where a chain is given by its changes, count along the chain named. Names may count otherwise.

B1: R105K (protein)
chain: MQLRNPELHLGCALALRFLALVSWDIPGARALDNGLARTPTMGWLHWERFMCNLDCQEEPDSCISEKLFMEMAELMVSEGWKDAGYEYLCIDDCWMAPQRDSEGKLQADPQRFPHGIRQLANYVHSKGLKLGIYADVGNKTCAGFPGSFGYYDIDAQTFADWGVDLLKFDGCYCDSLENLADGYKHMSLALNRTGRSIVYSCEWPLYMWPFQKPNYTEIRQYCNHWRNFADIDDSWKSIKSILDWTSFNQERIVDVAGPGGWNDPDMLVIGNFGLSWNQQVTQMALWAIMAAPLFMSNDLRHISPQAKALLQDKDVIAINQDPLGKQGYQLRQGDNFEVWERPLSGLAWAVAMINRQEIGGPRSYTIAVASLGKGVACNPACFITQLLPVKRKLGFYEWTSRLRSHINPTGTVLLQLENTMQMSLKDLL
B2: P110T (protein)
chain: B1 chain with K105R, P110T
B3: D109H (protein)
chain: B1 chain with K105R, D109H
B4: F113Y (protein)
chain: B1 chain with K105R, F113Y
B5: D109A (protein)
chain: B1 chain with K105R, D109A
B6: F113V (protein)
chain: B1 chain with K105R, F113V
B7: D109Y (protein)
chain: B1 chain with K105R, D109Y
B8: Q107E (protein)
chain: B1 chain with K105R, Q107E
B9: L106I (protein)
chain: B1 chain with K105R, L106I
B10: Q107K (protein)
chain: B1 chain with K105R, Q107K
B11: Q107H (protein)
chain: B1 chain with K105R, Q107H
B12: A108E (protein)
chain: B1 chain with K105R, A108E
B13: A108V (protein)
chain: B1 chain with K105R, A108V
B14: L106H (protein)
chain: B1 chain with K105R, L106H
B15: H115D (protein)
chain: B1 chain with K105R, H115D
B16: L106V (protein)
chain: B1 chain with K105R, L106V
B17: P114L (protein)
chain: B1 chain with K105R, P114L
B18: R105T (protein)
chain: B1 chain with K105T
B19: D109N (protein)
chain: B1 chain with K105R, D109N
B20: L106P (protein)
chain: B1 chain with K105R, L106P
B21: D109E (protein)
chain: B1 chain with K105R, D109E

System: mutant form of α-Gal A expressed in HEK-293 cells
Assay: HEK assay (GLP HEK / Migalastat Amenability Assay): α-Gal A activity in lysates of transiently transfected HEK-293 cells incubated with or without 10 μM migalastat
Type: cell-based, human
Settings: 10 μM migalastat versus baseline
Method: Such mutations or variants are also referred to herein as “HEK assay amenable” mutations or variants.
The α-Gal A activity is expressed as the nmoles of free 4-MU released per milligram of protein per hour (nmol/mg/hr).
In Table 7, values for the mean±standard error of the mean (SEM) were calculated. nmol/mg/hr indicates “nmoles of free 4-MU released per mg of protein per hour”. WT indicates “wild-type”. NC indicates “not calculable”. N/A indicates “not applicable”.

Row | Molecule | Absolute increase (% WT)
1 | B1 | 20.5
2 | B2 | 18.6
3 | B3 | 30.0
4 | B4 | 4.4
5 | B5 | 20.4
6 | B6 | 9.2
7 | B7 | 7.5
8 | B8 | 10.4
9 | B9 | 23.6
10 | B10 | 16.4
11 | B11 | 9.1
12 | B12 | 14.2
13 | B13 | 34.4
14 | B14 | 7.3
15 | B15 | 14.1
16 | B16 | 19.8
17 | B17 | 5.4
18 | B18 | 15.6
19 | B19 | 36.5
20 | B20 | 25.8
21 | B21 | 9.3

Same assay, conditions: 10 μM migalastat α-Gal A activity relative to baseline

Row | Molecule | Relative increase
22 | B1 | 1.2
23 | B2 | 1.3
24 | B3 | 2.2
25 | B5 | 2.2
26 | B6 | 10.6
27 | B7 | 11.9
28 | B8 | 1.2
29 | B9 | 1.5
30 | B10 | 1.4
31 | B11 | 1.2
32 | B12 | 1.4
33 | B13 | 3.5
34 | B14 | 3.5
35 | B15 | 1.5
36 | B16 | 1.4
37 | B17 | 1.3
38 | B18 | 1.4
39 | B19 | 8.4
40 | B20 | 1.8
41 | B21 | 1.2

Same assay, conditions: 10 μM migalastat, 5 days; percentage of baseline wild-type α-Gal A activity; mean ± SEM

Row | Molecule | 10 μM migalastat α-Gal A activity (% WT)
42 | B1 | 96.7 ± 5.2
43 | B2 | 81.2 ± 6.5
44 | B3 | 54.6 ± 3.5
45 | B4 | 4.4 ± 0.3
46 | B5 | 38 ± 3.7
47 | B6 | 10.3 ± 1
48 | B7 | 8.2 ± 1.1
49 | B8 | 56.2 ± 3.3
50 | B9 | 70 ± 4.7
51 | B10 | 54.6 ± 4.8
52 | B11 | 50.8 ± 2
53 | B12 | 52.6 ± 4.6
54 | B13 | 47.7 ± 4.6
55 | B14 | 10.2 ± 1.1
56 | B15 | 44.8 ± 3
57 | B16 | 73.4 ± 5.9
58 | B17 | 23.7 ± 1.3
59 | B18 | 59.6 ± 3.9
60 | B19 | 41.5 ± 2.8
61 | B20 | 56.5 ± 3.9
62 | B21 | 50.6 ± 3.6

Same assay, conditions: absence of migalastat; mean activity below the limit of detection (<142 nmol/mg/hr)

Row | Molecule | Baseline α-Gal A activity (nmol/mg/hr)
63 | B4 | BLD (“BLD” indicates that the mean α-Gal A activity was below the limit of detection (<142 nmol/mg/hr))

Same assay, conditions: absence of migalastat; percentage of baseline wild-type α-Gal A activity; mean ± SEM

Row | Molecule | Baseline α-Gal A activity (% WT)
64 | B1 | 76.2 ± 2.9
65 | B2 | 62.6 ± 5.9
66 | B3 | 24.6 ± 1.7
67 | B5 | 17.5 ± 2.2
68 | B6 | 1.1 ± 0.1
69 | B7 | 0.7 ± 0.1
70 | B8 | 45.7 ± 3.1
71 | B9 | 46.4 ± 2.7
72 | B10 | 38.2 ± 3.9
73 | B11 | 41.7 ± 1.5
74 | B12 | 38.4 ± 2.6
75 | B13 | 13.3 ± 1.7
76 | B14 | 3 ± 0.2
77 | B15 | 30.7 ± 2.9
78 | B16 | 53.6 ± 4.3
79 | B17 | 18.3 ± 2.1
80 | B18 | 44 ± 2.2
81 | B19 | 5 ± 0.3
82 | B20 | 30.7 ± 2.7
83 | B21 | 41.3 ± 3.4

Same assay, conditions: lysates of HEK-293 cells transfected with the mutant form, incubated 5 days in the absence of migalastat; mean ± SEM

Row | Molecule | Baseline α-Gal A activity [nmol/mg/h]
84 | B1 | 25495 ± 1793
85 | B2 | 20474 ± 1528
86 | B3 | 7540 ± 684
87 | B5 | 6345 ± 1034
88 | B6 | 341 ± 41
89 | B7 | 212 ± 30
90 | B8 | 13148 ± 985
91 | B9 | 13485 ± 1014
92 | B10 | 14579 ± 2689
93 | B11 | 12307 ± 487
94 | B12 | 11629 ± 835
95 | B13 | 4914 ± 799
96 | B14 | 856 ± 58
97 | B15 | 10284 ± 1141
98 | B16 | 15393 ± 1288
99 | B17 | 6229 ± 901
100 | B18 | 12553 ± 603
101 | B19 | 1475 ± 83
102 | B20 | 8835 ± 878
103 | B21 | 13839 ± 1179

Same assay, conditions: lysates of HEK-293 cells transfected with the mutant form, incubated 5 days with 10 μM migalastat; mean ± SEM

Row | Molecule | 10 μM migalastat α-Gal A activity [nmol/mg/h]
104 | B1 | 31647 ± 2251
105 | B2 | 26745 ± 1678
106 | B3 | 16483 ± 1317
107 | B4 | 1328 ± 79
108 | B5 | 13742 ± 1780
109 | B6 | 3614 ± 596
110 | B7 | 2530 ± 415
111 | B8 | 16149 ± 1059
112 | B9 | 20120 ± 1416
113 | B10 | 20402 ± 3399
114 | B11 | 14822 ± 384
115 | B12 | 15648 ± 1305
116 | B13 | 17249 ± 2284
117 | B14 | 3009 ± 399
118 | B15 | 15258 ± 1412
119 | B16 | 20991 ± 1611
120 | B17 | 7973 ± 626
121 | B18 | 17062 ± 1134
122 | B19 | 12358 ± 973
123 | B20 | 16075 ± 1039
124 | B21 | 16926 ± 1156
